Here are results for 13 substances from publication PMC3887192.

This test deals with HLA A*0201-…. The test can be described thus: SPR. As to conditions: 25 °C.

As to “ILA1 TCR ILA1α1β1 (CDR2&3 mutations, not printed)”, the Kd was 0.002 µM.
Take “MEL5 TCR MEL5β2 (CDR2 mutations, not printed)”: the dissociation constant (Kd) was determined as 1.3 µM, the dG is -7.49 kcal/mol-1 and the other: Half-life was found to be 2.4 s.
The substance “MEL5 TCR MEL5β3 (CDR2 mutations, not printed)” came in with a Kd of 0.85 µM, a dG of -7.72 kcal/mol-1 and an other: Half-life of 4.2 s.
Turning to “MEL5 TCR MEL5β4 (CDR2 mutations, not printed)”, the Kd is 1.4 µM, the dG is -7.45 kcal/mol-1 and the other: Half-life turned out to be 3 s.
Substance “ILA1 TCR ILA1α1β2 (CDR2&3 mutations, not printed)” yielded a Kd of 0.0031 µM.
As to “MEL5 TCR MEL5β8 (CDR2&3 mutations, not printed)”, the Kd worked out at 0.17 µM, the dG was -8.61 kcal/mol-1 and the other: Half-life was 49.2 s.
In the case of “MEL5 TCR MEL5β7 (CDR2&3 mutations, not printed)”, the Kd was determined as 0.54 µM, the dG is -7.97 kcal/mol-1 and the other: Half-life amounted to 27.6 s.
The corresponding values for “MEL5 TCR MEL5β1 (CDR2 mutations, not printed)” are 1.8 µM, -7.31 kcal/mol-1 and 2.4 s.
Regarding “ILA1 TCR ILA1α1 (CDR3 mutations, not printed)”, the Kd is 0.026 µM, the dG is -9.65 kcal/mol-1 and the other: Half-life came out at 1100 s.
“MEL5 TCR MEL5β6 (CDR2&3 mutations, not printed)” came in with a Kd of 0.21 µM, a dG of -8.49 kcal/mol-1 and an other: Half-life of 11.4 s.
On to “ILA1 TCR ILA1β2 (CDR2 mutations, not printed)”, for which the Kd is 0.0091 µM.
“MEL5 TCR MEL5β5 (CDR2&3 mutations, not printed)”: the Kd came to 2.1 µM, the dG is -7.22 kcal/mol-1 and the other: Half-life was 1.2 s.
The substance “ILA1 TCR ILA1β1 (CDR2 mutations, not printed)” displayed a dissociation constant Kd of 0.0095 µM.
